The record followed here is patent publication US20120207670A1.

The experiment deals with IL-12 (mouse; target of the rat anti-mouse antibodies in the in vitro neutralization studies) (mouse) (UniProt P43432). Description: cell-based or functional assay.
Chain of IL-12 (mouse; target of the rat anti-mouse antibodies in the in vitro neutralization studies) (mouse) (P43432 23-335, chain 1 of 2): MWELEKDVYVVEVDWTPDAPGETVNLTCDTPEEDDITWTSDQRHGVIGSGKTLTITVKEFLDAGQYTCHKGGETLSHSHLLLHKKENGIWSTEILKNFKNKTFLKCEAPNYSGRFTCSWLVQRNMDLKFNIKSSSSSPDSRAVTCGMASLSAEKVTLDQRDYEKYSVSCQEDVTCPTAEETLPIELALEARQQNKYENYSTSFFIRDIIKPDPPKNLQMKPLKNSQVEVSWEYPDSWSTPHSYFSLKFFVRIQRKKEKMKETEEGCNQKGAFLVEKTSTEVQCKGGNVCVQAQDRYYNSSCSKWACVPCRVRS
Chain of IL-12 (mouse; target of the rat anti-mouse antibodies in the in vitro neutralization studies) (mouse) (P43431 23-215, chain 2 of 2, further chain): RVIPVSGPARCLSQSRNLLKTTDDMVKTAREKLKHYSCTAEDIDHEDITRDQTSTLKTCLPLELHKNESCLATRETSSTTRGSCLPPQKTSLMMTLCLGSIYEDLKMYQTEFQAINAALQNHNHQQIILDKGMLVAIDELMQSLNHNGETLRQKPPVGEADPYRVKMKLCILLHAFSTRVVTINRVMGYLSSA

As to “C17.8 (rat anti-mouse IL-12/IL-23p40, IgG2a) (antibody)”, the in vitro neutralization of IL-12 (fold (against anti-p35 mAb C18.2)) was 5.
